Patent publication US20200024319A1 (Amgen, published 2020)
Positions count from the first letter of the chain named. Names may count otherwise.

T1: CD25 (IL-2Rα) on the surface of T cells (human, UniProt P01589 22-272)
T1 construct: whole, on cells; also called cell surface CD25
T1 sequence (looked up): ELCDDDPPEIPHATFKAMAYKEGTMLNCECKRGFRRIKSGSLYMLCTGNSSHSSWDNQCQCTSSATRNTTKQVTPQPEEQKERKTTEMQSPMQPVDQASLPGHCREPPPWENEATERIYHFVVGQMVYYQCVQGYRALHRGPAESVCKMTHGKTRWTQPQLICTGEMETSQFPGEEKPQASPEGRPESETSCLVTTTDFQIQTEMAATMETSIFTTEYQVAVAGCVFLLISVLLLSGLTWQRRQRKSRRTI

B1: 9D6 (antibody, V domains shown)
VH: EVQLVQSGAEVKKPGESLKISCKGSGYRFTSYWIGWVRQMPGKGLEWMGIIHPGDSDTRYSPSFQGQVTISADKSISTAYLQWSSLKASDTAIYYCTRQGRSFYYYGMDVWGQGTTVTVSS
VL: DIVMTQTPLSLPVTPGEPASISCRSSQSLLDSDEGNTYLDWYLQKPGQSPQLLIYTLSYRASGVPDRFSGTGSDTDFTLKISRVEAEDVGVYYCMQRIEFPLTFGGGTKVEIK
B2: 18F3 (antibody, V domains shown)
VH: QVQLQESGPGLVKPSQTLSLTCTVSGGSISSGGYYWSWIRQHPGKGLEWIGYIYYSGSTDYNPSLKSRGIISGDTSKNQFSLKLNSVTAADTAVYYCAREGRFGELGSYYFDYWGQGTLVTVSS
VL: SYELTQPPSVSVSPGQTARIACSGDALPRKFAYWYQQKSGQAPVLVISEDSRRPSGIPERFSGSSSGTMATLTISGAQVEDEADYYCFSTDSSANHRVFGGGTKLTVL
B3: 2H11 (antibody, V domains shown)
VH: EVQLVQSGAEVKKPGESLKISCKGSGYNFTTYWIGWVRQMPGKGLEWMGIIYPGDSDTRYSPSFQGQVTISADKSINTAYLQWSSLKASDTAIYYCARDTGYFDYWGQGTLVTVSS
VL: B2 VL with A21T, S48Y, S51R, R52K, F88Y, S92R, A94G, N95D, R97V
B4: 26C12 (antibody, V domains shown)
VH: EVQLVQSGAEVKKPGESLKISCKGSGYRFTSYWIGWVRQMPGKGLEWMGIIFPGDSDTRYSPSFQGQVTISADKSITTAYLQWSSLKASDTAIYYCARHGHGSSSGRTYYYGLDVWGQGTTVTVSS
VL: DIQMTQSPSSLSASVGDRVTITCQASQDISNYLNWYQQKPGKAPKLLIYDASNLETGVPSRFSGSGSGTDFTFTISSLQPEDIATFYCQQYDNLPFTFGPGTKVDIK
B5: 26H7 (antibody, V domains shown)
VH: EVQLVQSGAEVKKPGESLKISCKGSGYRFTNYWIGWVRQMPGKGLEWMGIIYPGDSDTKYSPSFQGQVTISADKSISTAYLQWSSLKASDTAMYYCARHGGYSGRSYYYGMDVWGQGTAVTVSS
VL: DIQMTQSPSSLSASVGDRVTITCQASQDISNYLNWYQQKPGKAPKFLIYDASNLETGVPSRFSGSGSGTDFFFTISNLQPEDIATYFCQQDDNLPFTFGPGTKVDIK
B6: 9B10 (antibody, V domains shown)
VH: QVQLVESGGGVVQPGRSLRLSCAASGFTFSSYAMHWVRQAPGKGLEWVAVIWYDGINKYYADSVKGRFTISRDNSKNTLYLQMNSLRAEDTAVYYCARGSYYDSSGYYFGEDFDYWGQGTLVTVSS
VL: DIVMTQTPLSSPVTLGQPASISCRSSHNLLHSDGNTYLSWLQQRPGQPPRLLIYEISNRFSGVPDRFSGSGAGTDFTLKISRVEAEDVGVYYCMQVTQFPTFGGGTKVEIK
B7: 14D7 (antibody, V domains shown)
VH: QVQLQESGPGLVKPSQTLSLTCTVSGGSISSGGYYWNWIRQHPGKGLEWIGYIYYSGNTHYNPSLKSRVTISVDTSKNQFSLKLSSVIAADTAVYYCARDWGRDAFDIWGQGTMVTVSS
VL: DIQMTQSPSSLSASVGDRVTITCRASQTISSYLNWYQQKPGKAPKVLIYAASSFQSGVPSRFSGSGSGTDFTLTISSLQPEDFATYYCQQSHYIPRTFGQGTKVEIK
B8: 14G7 (antibody, V domains shown)
VH: EVQLVQSGAEVKKPGESLKISCKGSGYSFTDYWIGWVRQMPGKGLEWMGIIYPYDSDTRYSPSFQGQVTLSADKSISTAYLRWSSLKASDTAMYYCARHRGGRSYYYGMDVWGQGTTVTVSS
VL: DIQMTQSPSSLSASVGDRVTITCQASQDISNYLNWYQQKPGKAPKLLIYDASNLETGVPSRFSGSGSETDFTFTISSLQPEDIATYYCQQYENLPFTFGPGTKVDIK
B9: 2C3 (antibody, V domains shown)
VH: EVQLVQSGAEVKKPGESLKISCKGSGYRFTSYWIGWVRQMPGKGLEWMGIIYPGDSDTRYSPSFQGQVTISADKSISAAYLQWSSLKASDTAMYYCARQQVAGMLDYWGQGTLVTVSS
VL: EIVLTQSPGTLSLSPGERATLSCRASQSFSSSYLVWYQQKPGQAPRLLIYGASSRATGIPDRFGGSGSGTDFTLTISRLEPEDFAVYYCQQYGSSPLTFGGGTKVEIK
B10: haD5 fused to the amino terminus of Fc, separated by a GGGGS linker (Fc fusion)
chain: APTSSSTKKTQLQLQNLLLDLQMILNGISNHKNPRLARMLTFKFYMPEKATELKHLQCLEEELKPLEEALRLAPSKNFHLRPRDLISDINVIVLELKGSETTFMCEYADETATIVEFLNRWITFSQSIISTLTGGGGS
notes: IL-2 mutein N-terminal of the Fc; dimer by the Fc; also called haD5 Fc fusion; not shown: IgG1 Fc with an effector function mutation (A327Q, L234A+L235A or N297G)
B11: HaMut1D (V69A, Q74P, N88D, C125A) (ligand)
chain: APTSSSTKKTQLQLEHLLLDLQMILNGINNYKNPKLTRMLTFKFYMPKKATELKHLQCLEEELKPLEEALNLAPSKNFHLRPRDLISDINVIVLELKGSETTFMCEYADETATIVEFLNRWITFAQSIISTLT
notes: not shown: C-terminal FLAG and poly-His tag
B12: HaMut3D (K35R, V69A, Q74P, N88D, C125A) (ligand)
chain: B11 chain with K35R
notes: human IL-2 mutein; not shown: C-terminal FLAG and poly-His tag
B13: HaMut8D (K35R, K48E, E68D, N88D, C125A) (ligand)
chain: B11 chain with K35R, K48E, E68D, A69V, P74Q
notes: as for B12
B14: HaMut2D (N30S, V69A, Q74P, N88D, C125A) (ligand)
chain: B11 chain with N30S
notes: as for B12
B15: HaMut7D (N71R, V69A, Q74P, N88D, C125A) (ligand)
chain: B11 chain with N71R
notes: as for B12
B16: HaMut5D (K48E, V69A, Q74P, N88D, C125A) (ligand)
chain: B11 chain with K48E
notes: as for B12
B17: HaMut4D (T37A, V69A, Q74P, N88D, C125A) (ligand)
chain: B11 chain with T37A
notes: as for B12
B18: HaMut6D (E68D, V69A, Q74P, N88D, C125A) (ligand)
chain: B11 chain with E68D
notes: as for B12

target: T2, wild-type human IL-2 (human, UniProt P60568 21-153); assay: BIACORE
T2 construct: also called hIL-2

In order of rising Kd:
1. B5  ~0.0013 nM
2. B3  ~0.03 nM
3. B1  ~0.041 nM
4. B2  ~0.05 nM
5. B6  ~0.11 nM
6. B4  ~0.27 nM
7. B8  ~0.28 nM
8. B7  ~0.3 nM

target: T3, cynomolgus monkey IL-2 (cynomolgus monkey, UniProt Q29615 21-154); assay: BIACORE
T3 construct: also called cyno IL-2

In order of rising Kd:
1. B9  ~0.0012 nM
2. B3  ~0.008 nM
3. B1  ~0.016 nM
4. B2  ~0.05 nM
5. B4  ~0.13 nM
6. B8  ~0.13 nM
7. B7  ~0.14 nM
8. B6  ~0.16 nM
9. B5  ~0.31 nM

target: T1, CD25 (IL-2Rα) on the surface of T cells; assay: binding to cell surface CD25 (method not described)

B10: binds.

target: T1, CD25 (IL-2Rα) on the surface of T cells; assay: flow cytometry, binding to CD25 on the surface of activated T cells

In order of rising Kd:
1. B15  ~0.2 nM
2. B11  ~2 nM

B12: binds.
B13: binds.
B14: binds.
B16: binds.
B17: binds.
B18: binds.
